Measurements: article PMC9482650, “Quantitative fragmentomics allow affinity mapping of interactomes” (Nature Communications, 2022)

Columns and labels:
Assay in all cases: holdup assay
Set-up in all cases: key: below the threshold = too weak to quantify, mostly under pKd 3.1 to 4
APBA2_1, Q99767 = target: T1, APBA2_1, Q99767
T1 sequence (Q99767 563-664, limits assumed, looked up): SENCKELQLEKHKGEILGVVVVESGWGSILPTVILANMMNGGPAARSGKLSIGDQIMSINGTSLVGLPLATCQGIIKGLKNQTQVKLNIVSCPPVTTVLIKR

ARHGEF11, O15085 = target: T2, ARHGEF11, O15085
T2 sequence (O15085 42-136, limits assumed, looked up): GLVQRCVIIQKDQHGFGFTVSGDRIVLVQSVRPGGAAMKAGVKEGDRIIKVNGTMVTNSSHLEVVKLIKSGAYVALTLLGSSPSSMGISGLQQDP

DLG1_1, Q12959 = target: DLG1_1, Q12959
DLG3_1, Q92796 = target: T3, DLG3_1, Q92796
T3 sequence (Q92796 125-227, limits assumed, looked up): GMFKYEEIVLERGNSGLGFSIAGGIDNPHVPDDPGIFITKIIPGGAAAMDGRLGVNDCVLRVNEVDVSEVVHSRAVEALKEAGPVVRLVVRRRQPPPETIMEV

DLG4_1, P78352 = target: DLG4_1, P78352
DLG4_1, P78352, sequence (P78352 62-152): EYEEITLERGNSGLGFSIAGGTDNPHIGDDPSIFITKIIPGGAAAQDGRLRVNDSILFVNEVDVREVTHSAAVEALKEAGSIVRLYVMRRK

DVL3, Q92997 = target: T4, DVL3, Q92997
T4 sequence (Q92997 244-331, limits assumed, looked up): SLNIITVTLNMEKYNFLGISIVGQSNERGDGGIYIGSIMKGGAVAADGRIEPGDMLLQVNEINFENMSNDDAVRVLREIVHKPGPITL

FRMPD2_3, Q68DX3 = target: FRMPD2_3, Q68DX3
FRMPD2_3, Q68DX3, sequence (Q68DX3 1073-1166): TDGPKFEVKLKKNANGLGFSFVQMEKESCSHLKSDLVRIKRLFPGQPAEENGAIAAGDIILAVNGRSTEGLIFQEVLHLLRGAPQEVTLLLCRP

FRMPD4, Q14CM0 = target: FRMPD4, Q14CM0
FRMPD4, Q14CM0, sequence (Q14CM0 67-160): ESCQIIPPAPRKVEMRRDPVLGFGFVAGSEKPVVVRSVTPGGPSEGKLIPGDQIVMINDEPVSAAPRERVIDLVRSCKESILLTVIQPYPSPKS

GRIP1_3, Q9Y3R0 = target: T5, GRIP1_3, Q9Y3R0
T5 sequence (Q9Y3R0 247-346, limits assumed, looked up): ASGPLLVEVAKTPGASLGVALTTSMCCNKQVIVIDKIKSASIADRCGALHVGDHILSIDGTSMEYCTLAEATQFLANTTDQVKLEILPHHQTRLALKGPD

GRIP1_5, Q9Y3R0 = target: T6, GRIP1_5, Q9Y3R0
T6 sequence (Q9Y3R0 568-668, limits assumed, looked up): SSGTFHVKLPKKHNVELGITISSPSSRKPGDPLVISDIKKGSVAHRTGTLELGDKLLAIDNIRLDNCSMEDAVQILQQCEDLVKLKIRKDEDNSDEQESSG

GRIP2_5, Q9C0E4 = target: GRIP2_5, Q9C0E4
GRIP2_5, Q9C0E4, sequence (Q9C0E4 544-642): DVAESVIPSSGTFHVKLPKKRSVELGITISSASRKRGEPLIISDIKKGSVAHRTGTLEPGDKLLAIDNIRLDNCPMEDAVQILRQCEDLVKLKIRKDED

HTRA4, P83105 = target: T7, HTRA4, P83105
T7 sequence (P83105 378-476, limits assumed, looked up): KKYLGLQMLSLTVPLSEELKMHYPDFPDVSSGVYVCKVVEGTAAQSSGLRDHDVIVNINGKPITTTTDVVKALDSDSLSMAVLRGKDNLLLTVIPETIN

Inadl_2, Q8NI35 = target: Inadl_2, Q8NI35
Inadl_2, Q8NI35, sequence (Q8NI35 238-335): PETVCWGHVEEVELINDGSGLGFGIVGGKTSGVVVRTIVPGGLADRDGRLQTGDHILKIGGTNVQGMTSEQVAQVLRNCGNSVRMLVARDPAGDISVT

Inadl_4, Q8NI35 = target: Inadl_4, Q8NI35
Inadl_4, Q8NI35, sequence (Q8NI35 547-651): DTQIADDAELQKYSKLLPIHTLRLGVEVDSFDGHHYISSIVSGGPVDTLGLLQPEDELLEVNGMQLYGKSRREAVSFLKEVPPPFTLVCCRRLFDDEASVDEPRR

Inadl_5, Q8NI35 = target: Inadl_5, Q8NI35
Inadl_5, Q8NI35, sequence (Q8NI35 673-780): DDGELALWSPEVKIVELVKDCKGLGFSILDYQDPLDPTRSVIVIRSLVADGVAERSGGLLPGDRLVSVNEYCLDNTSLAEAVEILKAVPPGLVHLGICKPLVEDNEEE

Inadl_6, Q8NI35 = target: Inadl_6, Q8NI35
Inadl_6, Q8NI35, sequence (Q8NI35 1058-1167): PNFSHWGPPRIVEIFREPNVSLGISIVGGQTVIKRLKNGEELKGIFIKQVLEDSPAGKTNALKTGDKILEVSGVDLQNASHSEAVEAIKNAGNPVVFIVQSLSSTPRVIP

LDB3, O75112 = target: LDB3, O75112
LDB3, O75112, sequence (O75112 1-94): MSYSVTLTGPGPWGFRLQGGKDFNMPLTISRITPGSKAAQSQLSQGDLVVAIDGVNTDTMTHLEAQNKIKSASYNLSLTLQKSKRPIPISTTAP

LNX2_2, Q8N448 = target: T8, LNX2_2, Q8N448
T8 sequence (Q8N448 334-432, limits assumed, looked up): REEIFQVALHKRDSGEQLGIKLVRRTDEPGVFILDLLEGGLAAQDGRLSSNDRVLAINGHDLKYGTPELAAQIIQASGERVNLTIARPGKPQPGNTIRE

MAGI1_1, Q96QZ7 = target: MAGI1_1, Q96QZ7
MAGI1_1, Q96QZ7, sequence (Q96QZ7 1-106): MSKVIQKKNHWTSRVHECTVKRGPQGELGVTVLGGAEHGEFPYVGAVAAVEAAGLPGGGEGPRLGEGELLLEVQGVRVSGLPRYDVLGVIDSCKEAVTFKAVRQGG

MAGI1_2, Q96QZ7 = target: MAGI1_2, Q96QZ7
MAGI1_2, Q96QZ7, sequence (Q96QZ7 456-580): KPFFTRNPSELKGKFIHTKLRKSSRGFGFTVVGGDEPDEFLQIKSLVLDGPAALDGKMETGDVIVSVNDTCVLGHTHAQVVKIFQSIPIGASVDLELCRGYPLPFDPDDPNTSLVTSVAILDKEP

MAGI2_4, Q86UL8 = target: MAGI2_4, Q86UL8
MAGI2_4, Q86UL8, sequence (Q86UL8 772-865): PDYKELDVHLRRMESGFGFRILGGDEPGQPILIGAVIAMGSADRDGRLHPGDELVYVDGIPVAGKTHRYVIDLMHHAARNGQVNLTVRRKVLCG

MAGI2_6, Q86UL8 = target: MAGI2_6, Q86UL8
MAGI2_6, Q86UL8, sequence (Q86UL8 1141-1229): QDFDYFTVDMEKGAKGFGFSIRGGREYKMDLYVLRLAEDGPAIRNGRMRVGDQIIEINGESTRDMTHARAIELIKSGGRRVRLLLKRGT

NHERF3_1, Q5T2W1 = target: T9, NHERF3_1, Q5T2W1
T9 sequence (Q5T2W1 4-100, limits assumed, looked up): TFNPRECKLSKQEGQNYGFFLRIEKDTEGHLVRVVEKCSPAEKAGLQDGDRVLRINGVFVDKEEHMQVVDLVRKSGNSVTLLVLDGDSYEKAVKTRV

PDZRN4_1, Q6ZMN7 = target: PDZRN4_1, Q6ZMN7
PDZRN4_1, Q6ZMN7, sequence (Q6ZMN7 213-318): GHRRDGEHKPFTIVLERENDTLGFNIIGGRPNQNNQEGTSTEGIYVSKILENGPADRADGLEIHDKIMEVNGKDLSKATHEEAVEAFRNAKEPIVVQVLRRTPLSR

RHPN1, Q8TCX5 = target: T10, RHPN1, Q8TCX5
T10 sequence (Q8TCX5 508-602, limits assumed, looked up): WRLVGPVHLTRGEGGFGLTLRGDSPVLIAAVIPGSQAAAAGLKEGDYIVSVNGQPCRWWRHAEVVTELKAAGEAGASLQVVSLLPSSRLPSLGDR

SNTG1, Q9NSN8 = target: T11, SNTG1, Q9NSN8
T11 sequence (Q9NSN8 52-150, limits assumed, looked up): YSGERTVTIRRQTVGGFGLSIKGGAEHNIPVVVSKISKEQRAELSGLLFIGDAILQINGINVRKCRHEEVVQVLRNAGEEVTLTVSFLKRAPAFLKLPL

TJP2_1, Q9UDY2 = target: TJP2_1, Q9UDY2
TJP2_1, Q9UDY2, sequence (Q9UDY2 24-128): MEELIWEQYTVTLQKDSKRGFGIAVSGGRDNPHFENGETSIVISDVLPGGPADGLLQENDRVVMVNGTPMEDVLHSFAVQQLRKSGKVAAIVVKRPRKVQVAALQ

[1] = plain residues with an end cap or a label only (N-terminal biotin on a linker: ttds)
[2] = plain residues with an end cap or a label only (N-terminal biotin on a linker: ado-ado)

B1: MAP4, P27816 (peptide)
chain: LDSQIQETSI
pKd (APBA2_1, Q99767; [1]): below the threshold | pKd (ARHGEF11, O15085; [1]): below the threshold | pKd (DLG1_1, Q12959; [1]): 3.64 | pKd (DLG3_1, Q92796; [1]): below the threshold | pKd (DLG4_1, P78352; [1]): 3.5 | pKd (DVL3, Q92997; [1]): below the threshold | pKd (FRMPD2_3, Q68DX3; [1]): below the threshold | pKd (FRMPD4, Q14CM0; [1]): below the threshold | pKd (GRIP1_3, Q9Y3R0; [1]): below the threshold | pKd (GRIP1_5, Q9Y3R0; [1]): below the threshold | pKd (GRIP2_5, Q9C0E4; [1]): below the threshold | pKd (HTRA4, P83105; [1]): below the threshold | pKd (Inadl_2, Q8NI35; [1]): below the threshold | pKd (Inadl_4, Q8NI35; [1]): below the threshold | pKd (Inadl_5, Q8NI35; [1]): below the threshold | pKd (Inadl_6, Q8NI35; [1]): 4.13 | pKd (LDB3, O75112; [1]): below the threshold | pKd (LNX2_2, Q8N448; [1]): below the threshold | pKd (MAGI1_1, Q96QZ7; [1]): below the threshold | pKd (MAGI1_2, Q96QZ7; [1]): below the threshold | pKd (MAGI2_4, Q86UL8; [1]): below the threshold | pKd (MAGI2_6, Q86UL8; [1]): 4.05 | pKd (NHERF3_1, Q5T2W1; [1]): 4.52 | pKd (PDZRN4_1, Q6ZMN7; [1]): 4.84 | pKd (RHPN1, Q8TCX5; [1]): 4.94 | pKd (SNTG1, Q9NSN8; [1]): 5.31 | pKd (TJP2_1, Q9UDY2; [1]): below the threshold

B2: TANC2, Q9HCD6 (peptide)
chain: PKRPFVESNV
pKd (APBA2_1, Q99767; [1]): below the threshold | pKd (ARHGEF11, O15085; [1]): below the threshold | pKd (DLG1_1, Q12959; [1]): 4.31 | pKd (DLG3_1, Q92796; [1]): 3.82 | pKd (DLG4_1, P78352; [1]): 4.32 | pKd (DVL3, Q92997; [1]): below the threshold | pKd (FRMPD2_3, Q68DX3; [1]): below the threshold | pKd (FRMPD4, Q14CM0; [1]): below the threshold | pKd (GRIP1_3, Q9Y3R0; [1]): below the threshold | pKd (GRIP1_5, Q9Y3R0; [1]): below the threshold | pKd (GRIP2_5, Q9C0E4; [1]): below the threshold | pKd (HTRA4, P83105; [1]): below the threshold | pKd (Inadl_2, Q8NI35; [1]): below the threshold | pKd (Inadl_4, Q8NI35; [1]): below the threshold | pKd (Inadl_5, Q8NI35; [1]): below the threshold | pKd (Inadl_6, Q8NI35; [1]): below the threshold | pKd (LDB3, O75112; [1]): below the threshold | pKd (LNX2_2, Q8N448; [1]): below the threshold | pKd (MAGI1_1, Q96QZ7; [1]): below the threshold | pKd (MAGI1_2, Q96QZ7; [1]): below the threshold | pKd (MAGI2_4, Q86UL8; [1]): below the threshold | pKd (MAGI2_6, Q86UL8; [1]): 3.76 | pKd (NHERF3_1, Q5T2W1; [1]): 3.59 | pKd (PDZRN4_1, Q6ZMN7; [1]): below the threshold | pKd (RHPN1, Q8TCX5; [1]): 4.09 | pKd (SNTG1, Q9NSN8; [1]): 4.79 | pKd (TJP2_1, Q9UDY2; [1]): below the threshold

B3: RCN1, Q15293 (peptide)
chain: EDLTKNHDEL
pKd (APBA2_1, Q99767; [2]): 3.49 | pKd (ARHGEF11, O15085; [2]): 3.79 | pKd (DLG1_1, Q12959; [2]): below the threshold | pKd (DLG3_1, Q92796; [2]): below the threshold | pKd (DLG4_1, P78352; [2]): 3.57 | pKd (DVL3, Q92997; [2]): below the threshold | pKd (FRMPD2_3, Q68DX3; [2]): below the threshold | pKd (FRMPD4, Q14CM0; [2]): 4.09 | pKd (GRIP1_3, Q9Y3R0; [2]): below the threshold | pKd (GRIP1_5, Q9Y3R0; [2]): 3.52 | pKd (GRIP2_5, Q9C0E4; [2]): below the threshold | pKd (HTRA4, P83105; [2]): below the threshold | pKd (Inadl_2, Q8NI35; [2]): below the threshold | pKd (Inadl_4, Q8NI35; [2]): below the threshold | pKd (Inadl_5, Q8NI35; [2]): below the threshold | pKd (Inadl_6, Q8NI35; [2]): below the threshold | pKd (LDB3, O75112; [2]): 3.54 | pKd (LNX2_2, Q8N448; [2]): below the threshold | pKd (MAGI1_1, Q96QZ7; [2]): 3.62 | pKd (MAGI1_2, Q96QZ7; [2]): below the threshold | pKd (MAGI2_4, Q86UL8; [2]): 3.57 | pKd (MAGI2_6, Q86UL8; [2]): 3.54 | pKd (NHERF3_1, Q5T2W1; [2]): 3.75 | pKd (PDZRN4_1, Q6ZMN7; [2]): 3.73 | pKd (RHPN1, Q8TCX5; [2]): 3.79 | pKd (SNTG1, Q9NSN8; [2]): 3.64 | pKd (TJP2_1, Q9UDY2; [2]): below the threshold

B4: KIDINS220, Q9ULH0 (peptide)
chain: GFGEERESIL
pKd (APBA2_1, Q99767; [2]): below the threshold | pKd (ARHGEF11, O15085; [2]): 3.8 | pKd (DLG1_1, Q12959; [2]): below the threshold | pKd (DLG3_1, Q92796; [2]): below the threshold | pKd (DLG4_1, P78352; [2]): below the threshold | pKd (DVL3, Q92997; [2]): below the threshold | pKd (FRMPD2_3, Q68DX3; [2]): below the threshold | pKd (FRMPD4, Q14CM0; [2]): 3.92 | pKd (GRIP1_3, Q9Y3R0; [2]): below the threshold | pKd (GRIP1_5, Q9Y3R0; [2]): below the threshold | pKd (GRIP2_5, Q9C0E4; [2]): below the threshold | pKd (HTRA4, P83105; [2]): below the threshold | pKd (Inadl_2, Q8NI35; [2]): below the threshold | pKd (Inadl_4, Q8NI35; [2]): below the threshold | pKd (Inadl_5, Q8NI35; [2]): below the threshold | pKd (Inadl_6, Q8NI35; [2]): 4.1 | pKd (LDB3, O75112; [2]): below the threshold | pKd (LNX2_2, Q8N448; [2]): below the threshold | pKd (MAGI1_1, Q96QZ7; [2]): below the threshold | pKd (MAGI1_2, Q96QZ7; [2]): below the threshold | pKd (MAGI2_4, Q86UL8; [2]): below the threshold | pKd (MAGI2_6, Q86UL8; [2]): 3.67 | pKd (NHERF3_1, Q5T2W1; [2]): 5.06 | pKd (PDZRN4_1, Q6ZMN7; [2]): 4.61 | pKd (RHPN1, Q8TCX5; [2]): 4.61 | pKd (SNTG1, Q9NSN8; [2]): 3.62 | pKd (TJP2_1, Q9UDY2; [2]): below the threshold
